The data set concerns S. aureus Newbould 305. The experiment in a line: Turbidity reduction assay. The format is cell-based. The conditions noted are these: 1 μM enzyme, cells at OD600nm 1.0, FIG. 6a. As to the method:
FIG. 6a depicts the specific activity of peptidoglycan hydrolase fusion constructs in vitro in a turbidity reduction assay with S. aureus Newbould 305 resuspended in lysis buffer to an OD600nm of 1.0 and treated with 1 μM final concentrations of each peptidoglycan hydrolase. The maximum specific activity for three experiments are represented as an average with SEM error bars. FIG. 6b depicts the bacterial burden in mice with mastitis treated with recombinant peptidoglycan hydrolases. Colony Forming Units (CFUs) from infected murine mammary glands following a single treatment with 50 μl of 25 μM peptidoglycan hydrolase (1.25 nmol). Each data point represents the average of duplicate bacterial platings. The horizontal bars represent the average CFU/mg for each group. FIG. 6c illustrates the TNFα response in mice with mastitis that were treated with peptidoglycan hydrolases. Data represents a minimum of 7 measurements in duplicate. Log TNFα was used for statistical analysis. Single asterisks indicate a significant difference from buffer control (p<0.05); double asterisks indicate a significant difference from the parental enzyme (p<0.05).
FIG. 7 depicts a turbidity reduction assay of select peptidoglycan hydrolases against S. aureus Newbould 305. Bacterial cells were resuspended in lysis buffer to an OD600nm of 1.0 and lysed with 1 μM final concentrations of each peptidoglycan hydrolase. The maximum rate of ΔOD of three experiments are represented as an average with error bars representing SEM. Double asterisks indicate significant difference from parental. Mean comparisons were performed with one way ANOVA (P=3.3×10^−5) with t test post hoc analysis with Sidák adjusted alpha (p<0.01).

Consider “K-L: both LysK lytic domains fused to the N-terminus of lysostaphin; SEQ ID NO:5, protein SEQ ID NO:6”, for which the “turbidity reduction (in vitro lytic) activity” value was “slightly more effective at lysing S. aureus strain Newbould 305 than lysostaphin”.

These data come from patent US20160097044A1, “Antimicrobial Enzyme Fusions Reduce Resistance and Kill Intracellular Staphylococcus aureus” (The United States of America, as Represented by the …, priority 2014, published 2016).
